Experimental data published in IntAct's records for PubMed 34502139.

B1: Mitochondrial import receptor subunit TOM70 (Homo sapiens), O94826 (parent)
chain: MAASKPVEAAVVAAAVPSSGSGVGGGGTAGPGTGGLPRWQLALAVGAPLLLGAGAIYLWSRQQRRREARGRGDASGLKRNSERKTPEGRASPAPGSGHPEGPGAHLDMNSLDRAQAAKNKGNKYFKAGKYEQAIQCYTEAISLCPTEKNVDLSTFYQNRAAAFEQLQKWKEVAQDCTKAVELNPKYVKALFRRAKAHEKLDNKKECLEDVTAVCILEGFQNQQSMLLADKVLKLLGKEKAKEKYKNREPLMPSPQFIKSYFSSFTDDIISQPMLKGEKSDEDKDKEGEALEVKENSGYLKAKQYMEEENYDKIISECSKEIDAEGKYMAEALLLRATFYLLIGNANAAKPDLDKVISLKEANVKLRANALIKRGSMYMQQQQPLLSTQDFNMAADIDPQNADVYHHRGQLKILLDQVEEAVADFDECIRLRPESALAQAQKCFALYRQAYTGNNSSQIQAAMKGFEEVIKKFPRCAEGYALYAQALTDQQQFGKADEMYDKCIDLEPDNATTYVHKGLLQLQWKQDLDRGLELISKAIEIDNKCDFAYETMGTIEVQRGNMEKAIDMFNKAINLAKSEMEMAHLYSLCDAAHAQTEVAKKYGLKPPTL

Variants of: B1
Conditions: with orf9b_sars2 orf9b

Variant	effect of a mutation on the interaction
E477A	decreasing interaction strength

Variants of: B1
Conditions: with orf9b_sars2 orf9b
Remark: another data set of the same source

Variant	effect of a mutation on the interaction
R192A	decreasing interaction strength
